Assay results: patent publication US5683890A, “Bacteriocins from Streptococcus thermophilus” (Nestec S.A., priority 1993, dated 1997)

How the values were obtained:
[1] = molecular target: standard crude extract of bacteriocin from the culture supernatant of S. thermophilus CNCM I-1351
[2] = test system: S. thermophilus strain Sfi3 (typical indicator); experiment: Agar well test, antibacterial activity in arbitrary units; type: cell-based, Streptococcus thermophilus; conditions: Pep RPC fractions 15 and 21
Protocol: In order to do this, 35 ml of M 17 medium are poured into a Petri dish and 1% sucrose and 1.5% agar are added thereto.
5 ml of M 17 medium to which 1% sucrose and 0.75% agar are added are inoculated with 5 μl of a culture, prepared during the previous night, of a strain of S. thermophilus which is typically sensitive to the present bacteriocin (typical indicator), in this case the strain Sfi3 for example.
The 5 ml are poured over the 35 ml and left to dry for 15 min under a laminar flow. Holes of 5 mm in diameter are punched in the culture medium.
The test samples are poured into the holes, in an amount of 70 μl per hole. The incubation is carried out for 6 h under anaerobic conditions at 42° C. During this incubation, the typical indicator strain has grown and inhibition halos are visible.

## Nagarse (SIGMA P-4789) (enzyme)
[1]
  Inactivation (mm): diameter of the inhibition halo in the agar well test after incubation with the enzyme: 0 mm

## Proteinase K (MERCK 1000 144) (from UniProt P06873) (enzyme)
[1]
  Inactivation (mm): diameter of the inhibition halo in the agar well test after incubation with the enzyme: 0 mm

## α-amylase (SIGMA λ-0521) (enzyme)
[1]
  Inactivation (mm): diameter of the inhibition halo in the agar well test after incubation with the enzyme: 14 mm

## Catalase (SIGMA C-10) (enzyme)
[1]
  Inactivation (mm): diameter of the inhibition halo in the agar well test after incubation with the enzyme: 14 mm

## Pepsin (SIGMA P-700) (enzyme)
[1]
  Inactivation (mm): diameter of the inhibition halo in the agar well test after incubation with the enzyme: 0 mm

## Trypsin (SIGMA T-8128) (enzyme)
[1]
  Inactivation (mm): diameter of the inhibition halo in the agar well test after incubation with the enzyme: 0 mm

## Pronase E (SIGMA P-8038) (enzyme)
[1]
  Inactivation (mm): diameter of the inhibition halo in the agar well test after incubation with the enzyme: 0 mm

## Lipase (SIGMA L-0382) + protease inhibitors (enzyme)
[1]
  Inactivation (mm): diameter of the inhibition halo in the agar well test after incubation with the enzyme: 14 mm

## Ficin (SIGMA P-3266) (enzyme)
[1]
  Inactivation (mm): diameter of the inhibition halo in the agar well test after incubation with the enzyme: 0 mm

## thermophilin 2: second bacteriocin from S. thermophilus CNCM I-1351, sequence SEQ ID NO: 2, predominant in fraction 21 (QINWGSVVGHCIGGAIIGGAFSGGAAAGVGCLVGSGKAIINGL)
[2]
  antibacterial activity of purified peptide fractions: antibacterial activity

## α-chymotrypsin (SIGMA C-7762) (enzyme)
[1]
  Inactivation (mm): diameter of the inhibition halo in the agar well test after incubation with the enzyme: 0 mm

B1: thermophilin 1: first bacteriocin from S. thermophilus CNCM I-1351, sequence SEQ ID NO: 1, found in fraction 15 (protein)
chain: YSGKDCLKDMGGYALAGAGSGALWGAPAGGVGALPGAFVGAHVGAIAGGFACMGGMIGNKFN
[2]
  antibacterial activity of purified peptide fractions: antibacterial activity
